# Laboratory results published in patent publication US20200131473A1, “METHOD OF GENERATING 2 CELL-LIKE STEM CELLS” (IFOM FONDAZIONE ISTITUTO FIRC DI ONCOLOGIA MOLECOLARE, priority 2017, published 2020).
# B1: ETAA1-AAD: ATR activating domain of Ewing's tumor-associated antigen 1, overexpressed in ESCs by lentivirus (SEQ ID NO: 2) (protein)
# chain: VRQREQPPTAALCSKSNPEERYETPKRALKMETDSLSSSFSSPNDPDGQNDIFWDQNSPLTKQLGKGRKKQIYTTDSDEISHIVNRIAPQDEKPTTNSMETLDMETWIGETAIPCTPSVAKGKSRAKISCTKLKTQSQEEELMETKLAKQFDKNMETEELDVIQEQNKRNYDFTQ
# Experiments:
# Assay type in all cases: cell-based, mouse
# [1] = tested on: 2C-like genes (Zscan4, MuERV-L/MERVL, Dux) in ESCs (E14, R1); assay: qPCR for 2C-like specific genes in ESCs; conditions: Dox-inducible expression of ETAA1-AAD
# Procedure: (§1) All treatments including APH, HU, UV, ATRi, ATMi and Chk1i were added in to fresh ESC medium and the cells were kept in 37° C. and 3% 02 tension for overnight (16-17 hrs) unless mentioned in each particular result section. APH was used at various concentrations ranging from 0.3 uM to 6 uM that is mentioned in each experiment in order to induce mild to acute replication stress response. Similarly, HU was used at 0.1 mM-3 mM. ATMi (KU-55933) and ATRi (VE 822) were used at the concentration of 10 uM and 1 uM respectively. Moreover, Chk1i (UCN-01) at the concentration of 100 nM was used. UV radiation was performed at the dosage ranging from 2 to 10 J/m2. For induction of ETAA1-AAD expression, Dox was used at the concentration of 1 μg/mL for 48 hrs.
# RNA was extracted using RNeasy mini kit (QIAGEN), quantified by NanoDrop spectrophotometer and cDNA was prepared from 2 μg total DNA-depleted RNA using SuperScript™ III reverse transcriptase kit (Invitrogen cat #18080-093) following manufacturer's instructions. qPCR assay performed based on standard protocol using 10× SsoFast™ EvaGreen® Supermix or later 1× LightCycler 480 SYBR Green I Master (Roche, 04707516001), 0.5 μM primer mix and 5 ng of cDNA. GAPDH was used as internal control to normalise the qPCR data following ΔΔCt method, 10 μM primer mix and a total amount of cDNA corresponding to 5 ng of starting RNA for each reaction.
# [2] = tested on: ATR pathway (γH2AX, CHK1, CHK2 phosphorylation); assay: FACS and immunoblot for ATR pathway activation upon ETAA1-AAD overexpression; conditions: for number of γH2AX positive cells: versus empty vector (EV) infected ESCs
# Description: ESCs were fixed and permeabilized using Cytoperm/Cytofix kit (BD Biosciences), and subsequently stained for one hour at room temperature with Alexa Fluor® 647 anti-H2AX-Phosphorylated (Ser139) antibody (Biolegend) or P-CHK1-PE conjugated antibody (cell signaling 12268). Cells were washed and acquired on a FACS Calibur instrument or Attune NxT (Thermo Fisher Scientific). For Emerald-GFP acquisition, cells were trypsinized, collected and subsequently acquired without fixation. Cell cycle profiles were acquired after incubation with DAPI (4′,6-diamidino-2-phenylindole) overnight. For Caspase3 FACS analysis after fixation and permeabilization, Cleaved Caspase3 antibody were used for one hr at RT followed by washes and one hr incubation in donkey anti rabbit secondary antibody. […]
# The cells were trypsinized and washed with PBS and then lysed in RIPA buffer plus protease/phosphatase inhibitor cocktail (cell signaling, #5872), incubating for 30 minutes on a rotating wheel at +4° C. Lysates were sonicated with a Bioruptor Sonication System (UCD200) at high power for 3 cycles of 30 seconds with one minute breaks. Lysates were centrifuged at 13000 rpm for 20-30 minutes and clear supernatants were transferred to new tubes. The proteins were quantified using Bio-Rad protein assay and following manufacturer's instructions. For the detection of each protein, 35 μg of total protein extracts were loaded. Standard western blot was performed using following antibodies: ATR antibody (Cell Signaling 2790), Phoshpho-Chk1 antibody-S345 (Cell signaling 2348), Phoshpho-Chk1 antibody S317 (cell signaling 12302), Zscan4 antibody (Abcam ab4340), total Chk1 antibody (Santa Cruz 8408) and Chk2 antibody (Millipore 05-649), Anti-P53 (Cell Signalling, 2524S) and Anti-p-P53 (S15) (Cell Signalling, 12571S), Anti-Goat ALexa488 (Thermo Fisher Scientific, A-11055), Anti-Rabbit Cy3 (Jackson ImmunoResearch, 711-165-152), Anti-Mouse Alexa647 (Thermo Fisher Scientific, A-31571). […]
# pZscan4-Emerald ESCs = assay: FACS analysis of Zscan4-Emerald ESCs (Emerald-GFP positive cells)
# Procedure: as §1
# ESCs were fixed and permeabilized using Cytoperm/Cytofix kit (BD Biosciences), and subsequently stained for one hour at room temperature with Alexa Fluor® 647 anti-H2AX-Phosphorylated (Ser139) antibody (Biolegend) or P-CHK1-PE conjugated antibody (cell signaling 12268). Cells were washed and acquired on a FACS Calibur instrument or Attune NxT (Thermo Fisher Scientific). For Emerald-GFP acquisition, cells were trypsinized, collected and subsequently acquired without fixation. Cell cycle profiles were acquired after incubation with DAPI (4′,6-diamidino-2-phenylindole) overnight. […]
molecule,measurement,setting,value
B1,"transcription of Zscan4, Dux and MERVL",[1],"transcriptional activation of Zscan4, Dux and MERVL"
same,"phosphorylation of H2AX, CHK1 and CHK2 in ESCs",[2]; ATR activation through ETAA1 expression,leads to the phosphorylation of H2AX and CHK1 but not CHK2
same,number of γH2AX positive cells,[2],increase in the number of γH2AX cells
same,number of γH2AX positive cells,[2]; listed as ETAA1-AAD lentivirus,increase in the number of γH2AX positive cell
same,Z+ population in ESCs culture,pZscan4-Emerald ESCs; Dox-inducible expression of ETAA1-AAD,significant increase
same,increase in the number of Zscan4-positive population in ESC culture,pZscan4-Emerald ESCs; ETAA1-AAD lentivirus infected Zscan4-Emerald ESCs vs empty vector,up to 3 fold
